# Changes are numbered by the printed parent chain.
# B1: TPP-29519 (antibody, mouse IgG1)
# heavy: QVQLVESGGGVVQPGRSLRLSCAASGFTFSHYDMHWVRQAPGKGLEWVAVISYHGSVKFYADSVKGRFTISRDNSKNTLYLQMNSLRAEDTAVYYCARTPGFHFDYWGQGTLVTVSSAKTTPPSVYPLAPGSAAQTNSMVTLGCLVKGYFPEPVTVTWNSGSLSSGVHTFPAVLQSDLYTLSSSVTVPSSTWPSETVTCNVAHPASSTKVDKKIVPRDCGCKPCICTVPEVSSVFIFPPKPKDVLTITLTPKVTCVVVDISKDDPEVQFSWFVDDVEVHTAQTQPREEQFNSTFRSVSELPIMHQDWLNGKEFKCRVNSAAFPAPIEKTISKTKGRPKAPQVYTIPPPKEQMAKDKVSLTCMITDFFPEDITVEWQWNGQPAENYKNTQPIMDTDGSYFVYSKLNVQKSNWEAGNTFTCSVLHEGLHNHHTEKSLSHSPGK
# light: QSVLTQPPSASGTPGQRVTISCSGSSSNIGSNYVSWYQQLPGTAPKLLIYYDDLRPSGVPDRFSGSKSGTSASLAISGLRSEDEADYYCSAWDDSLSGVVFGGGTKLTVLGQPKSSPSVTLFPPSSEELETNKATLVCTITDFYPGVVTVDWKVDGTPVTQGMETTQPSKQSNNKYMASSYLTLTARAWERHSSYSCQVTHEGHTVEKSLSRADCS
# notes: mIgG1, Lambda
# Columns and labels:
# rat IL-11 = molecular target: T1, rat IL-11 (rat, UniProt Q99MF5 22-199); experiment: cell-based or functional assay
# T1 sequence: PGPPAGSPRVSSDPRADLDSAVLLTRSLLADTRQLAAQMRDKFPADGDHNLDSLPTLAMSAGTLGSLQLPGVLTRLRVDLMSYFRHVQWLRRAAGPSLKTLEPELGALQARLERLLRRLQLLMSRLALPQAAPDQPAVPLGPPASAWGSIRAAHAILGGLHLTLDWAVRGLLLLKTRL
# murine IL-11 [1] = molecular target: T2, murine IL-11 (mouse, UniProt P47873 22-199); experiment: cell-based or functional assay
# T2 sequence: T1 sequence with N50S, F84L, A94G, A137V, V138I
# cynomolgus IL-11 = molecular target: T3, cynomolgus IL-11 (cynomolgus, UniProt P20808 22-199); experiment: cell-based or functional assay
# T3 sequence: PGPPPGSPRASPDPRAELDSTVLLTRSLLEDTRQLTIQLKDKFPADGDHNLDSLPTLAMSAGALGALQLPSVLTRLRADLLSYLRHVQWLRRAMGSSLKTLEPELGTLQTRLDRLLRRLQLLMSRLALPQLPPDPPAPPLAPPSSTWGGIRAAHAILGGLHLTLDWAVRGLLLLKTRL
# human IL-11 = molecular target: T4, human IL-11 (human, UniProt P20809 22-199); experiment: cell-based or functional assay
# T4 sequence: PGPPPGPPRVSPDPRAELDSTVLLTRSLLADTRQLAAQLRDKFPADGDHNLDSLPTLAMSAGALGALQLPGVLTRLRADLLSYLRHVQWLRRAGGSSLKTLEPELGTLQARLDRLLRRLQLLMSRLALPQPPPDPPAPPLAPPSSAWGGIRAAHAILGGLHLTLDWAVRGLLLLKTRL
# murine IL-11 [2] = molecular target: T2, murine IL-11; experiment: SPR (Biacore), 37 C, antibody captured via anti-Fc, IL-11 as analyte
# Experimental: To assess the binding kinetics and affinity of anti-IL-11 bispecific antibodies as well as their species cross-reactivity profile, binding assays were conducted using surface plasmon resonance (SPR). […] Antibodies were captured either via anti-human Fc IgGs (“Human antibody capture kit”, Order No. BR100839, Cytiva) or via anti-mouse Fc IgGs (“Mouse antibody capture kit, Order No. BR100383, Cytiva) covalently amine coupled to a Series S CM5 sensor chip (Cytiva) depending on the isotype. The amine coupling was carried out according to the manufacturer's instructions using 1-ethyl-3-(3-dimethylaminopropyl) carbodiimide hydrochloride (EDC), N-hydroxysuccinimide (NHS) and ethanolamine HCl, pH 8.5 (“Amine Coupling Kit” BR-1000-50, Cytiva.). Human, mouse, cynomolgus or rat IL-11 was used as analyte at several dilutions within the concentration range from 0.05-200 nM. For binding assays with only one concentration 200 nM IL-11 was used. The sensor surface was regenerated with glycine pH 1.7 after each antigen injection. Obtained sensorgrams were double referenced (subtraction of reference flow cell signal and buffer injection) and were fitted to a 1:1 Langmuir binding model to derive kinetic data using the Biacore T200 Evaluation software or the Biacore Insight software.
# If no value is reported, there was either no binding or very low binding and multiphasic binding behavior.
# murine IL-11 [3] = molecular target: T2, murine IL-11; experiment: Tri-complex ELISA, mIL-11 + mIL-11Ra-Fc + mgp130-Fc, inhibition of complex formation
binder,measurement,setting,value
B1,"Efficacy (%), Stat3 reporter gene assay",rat IL-11,99.7%
same,"IC50, Stat3 reporter gene assay",rat IL-11,1 nM
same,"Efficacy (%), Stat3 reporter gene assay",murine IL-11 [1],101%
same,"IC50, Stat3 reporter gene assay",murine IL-11 [1],1.2 nM
same,"Efficacy (%), Stat3 reporter gene assay",cynomolgus IL-11,99.2%
same,"IC50, Stat3 reporter gene assay",cynomolgus IL-11,0.89 nM
same,"Efficacy (%), Stat3 reporter gene assay",human IL-11,100%
same,"IC50, Stat3 reporter gene assay",human IL-11,1.8 nM
same,Kd,murine IL-11 [2],0.0035 nM
same,Efficacy (%),murine IL-11 [3],81.3%
same,IC50,murine IL-11 [3],0.14 nM
